In doi:10.1101/2025.09.11.674065 one finds stoichiometry N data, which are given here for one substance.

The target of this assay is His6-AstR (Acinetobacter baumannii ATCC 17978VU). In words: SEC; size exclusion chromatography with standard curves; purified His6-AstR; Size Exclusion Buffer 50 mM Tris, 300 mM NaCl, pH 8.

His6-AstR (natural protein) gave a stoichiometry N of 2.
